# Measured values: the nanobody polyreactivity screen of Harvey et al. (2022)
# Experiment: yeast display, Sf9 membrane polyspecificity reagent, FACS + sequencing; frameworks hold sequencing errors
# Method in brief: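 Using colony PCR, genes from sorted yeast display clones were amplified, then sequenced on MiSeq at 2 × 250 and filtered by CDR length. The clones had been stained with 10% biotinylated, detergent-solubilized Sf9 membrane reagent for 1 hour at 4 °C and sorted by FACS into low and high (top ~1%) gates on anti-HA and streptavidin fluorescence. Polyreactivity labels come from the gate of origin.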
row,Sequence,polyreactivity (PSR sort gate)
1,QVQLVESGGGLVQAGGSLRLSCAASGSTFSFYDMGWSRQAPGKERELVAAITGSGGTTYYADSVQGRFTISRDNAKNTVYFQMNSLKPEDTAVYFCAADSLESYPDYEYDFWGQGTQVTVSS,low polyreactivity
2,QVQLVESGGGLVQAGGSLRLSCAASGSTFSFYDMGWYRQAPGKERELVAAITGSGGTTYYADSVKGRFTISRDNAKNTVYLQMNSLKPEDTAVYYCAADSLESYPDYEYDYWGQGTQVTVSS,low polyreactivity
3,QVQLVESGGGLVQAGGSLRLSCAASGSTFSGNAMGWYRQAPGKERELVARIRWSTGSTYYADSVKGRFTISRDNAKNTVYLQMNSLKPEDTAVYYCNARGTPWRYGGDYWGQGTQVTVSS,low polyreactivity
4,QVQLVESGGGLVQAGGSLRLSCAASGSTFSGNTMGWYRQAPGKERELVAAISRGGTRTNYADSVKGRFTISRDNAKNTVYLQMNSLKPEDTAVYYCAAGGSWGQNGYWGQGSQVTVSS,high polyreactivity
5,QVQLVESGGGLVQAGGSLRLSCAASGSTFSGSVMGWDRPAPGKERELVAAISNRGGRTYYADSVKGRFTISRDNAKNTVYLQMNSLKPEDTAVYYCAARGVVDAGRTNRPYDYWGQGTQVTVSS,low polyreactivity
6,QVQLVESGGGLVQAGGSLRLSCAASGSTFSGYAMGWYRQAPGKERELVAAISSSGGGTYYADSVKGRFTISRDNAKNTDYLQMNSLKPEDTAVYYCAARVGYRYRKGRYDYWGKGTQVTVSS,high polyreactivity
7,QVQLVESGGGLVQAGGSLRLSCAASGSTFSGYAMGWYRQAPGKERELVAAITSSGGRTYYADSVKGRFTISRDNAKNTVYLQMNSLKPEDTAVYYCAALYYHEYDYWGQGTQVTVSS,low polyreactivity
8,QVQLVESGGGLVQAGGSLRLSCAASGSTFSGYVMGWYRQAPGKERELVAAINGGGGTTYYADSVKGRFTISRDNAKNTVYLQMNSLKPEDTAVYYCAKRSYVTYPPYDYWGQGTQVTVSS,high polyreactivity
9,QVQLVESGGGLVQAGGSLRLSCAASGSTFSHNAMGWYREATGKERELVAAITAGGITYYADSVKGRFTISRDNAKNTVYLQMNSLKPEETAVYYCAGDFWPSGRGVAFDYWGQGTQVTVSS,low polyreactivity
10,QVQLVESGGGLVQAGGSLRLSCAASGSTFSHYAMGLYRQAPGKERALVAAISSGANTYYADSVKGRFTISRDNAKNTVYLLMNSLKPEDTAVYYCAADYYLAYIFPYDYWGQGSQVTVSS,low polyreactivity
11,QVQLVESGGGLVQAGGSLRLSCAASGSTFSINAMGWYRQAPGIERELVAAISRSGGSTYYADSVKGRFTISRDNAKNTVYLQMNSLKPEDTAVYYCAADSRYDYEYWGQGTQVTVSS,high polyreactivity
12,QVQLVESGGGLVQAGGSLRLSCAASGSTFSIYAMGWYRQAPGKERELVAAITRRSGSTYYADSVKGRITISRDNAKNTVSLQMKSLKPEDTAVYYCAADTWRTDYTSSYYKNRDSWGQGTQVTVSS,high polyreactivity
13,QVQLVESGGGLVQAGGSLRLSCAASGSTFSKNTMGWYRKAPGKERELVAAITSGGSTYYADSVKGRFTISRDNAKNTVYLQMNSLKPEDTAVYYCAAGYELYYYIYKMDYWGQGTQVTVSS,high polyreactivity
14,QVQLVESGGGLVQAGGSLRLSCAASGSTFSKYAMGWYRQAPGKERELVAAISSRGGSTYYADSVKGRFTISRDNAKNTVYLQMNSLKPEDTAVYYCATYYVYKLYYWGQGTQVTVSS,high polyreactivity
15,QVQLVESGGGLVQAGGSLRLSCAASGSTFSKYFMGWYSQAPGKERELVAAISGGDRTYYADSVKGRFTISRDNAKNTVYLQMNSLKTEVTAVYDCAAEVLKTRWSYDYWGQGTQVTVSS,high polyreactivity
16,QVQLVESGGGLVQAGGSLRLSCAASGSTFSLYAMGWYRQAPGIERELVAAIRSSGSTKYADSVKGRFTISRDNAKNTVYLQINSLKPEETAVYYCAAVSVTRADGRSGYEYWGQGTQVTVSS,low polyreactivity
17,QVQLVESGGGLVQAGGSLRLSCAASGSTFSLYAMGWYRQAPGKERELVAAISSGGRTYYADSVKGRFTISRDNAKNTVYLQMNSLKPEVTAVYYCAVYVAYLYSYYYWGQGTQVTVSS,low polyreactivity
18,QVQLVESGGGLVQAGGSLRLSCAASGSTFSLYAMGWYRQAPGKERELVARISYTDGSTYYADSVKGRFTISRDNAKNTVYLPMNSLKPEDTAVYYCAADAWYSYTLEDSWGQGTQVTVSS,low polyreactivity
19,QVQLVESGGGLVQAGGSLRLSCAASGSTFSNYAMGWYRQAPGKDRELVAGIDWSGGSTYYADSVKGRFTISRDNAKNTVYLQMNSLKPEDTAVYYSAKRVWYHGRKLRGYYWGQGTQVTVSS,low polyreactivity
20,QVQLVESGGGLVQAGGSLRLSCAASGSTFSPNAMGWSRQAPGKERELVAAITYRGANTYYADSVKGRFTISRDNAKNTVYLQMNSLKPEDTAVYYCAAEYAYHHVGFGYWGQGTQVTVSS,low polyreactivity
21,QVQLVESGGGLVQAGGSLRLSCAASGSTFSPNAMGWYRQATGKERELVAAITYRGANTYYADSVKGRFTISRDNAMITVYFQLNSLKPEDTAVYYCAPEYAYHHVGFGYWRQGTQVTVSS,low polyreactivity
22,QVQLVESGGGLVQAGGSLRLSCAASGSTFSPYAMGWYRPAPGKERELVAAITSGGSTYYADSVKGRFTISRDNAKNTVYLQMNSLKPEDTAVYYCNVVYIRVRRYNYWGQGTQVTVSS,high polyreactivity

row,Sequence,polyreactivity (PSR sort gate)
1,QVQLVESGGGLVQAGGSLRLSCAASGSTFSPYAMGWYRQAPGKERELVAAISYDGGSTYYADSVKGRFTISRDNAKNTVYLQMNSLKPDDTAGYYCAADYFRSYEGTYWVVASYYYWGQGTQVTVSS,low polyreactivity
2,QVQLVESGGGLVQAGGSLRLSCAASGSTFSPYAMGWYRQAPGKERELVAAITGSTGSTYYAESVKGRFTISRDNAKNTVYLQMNSLKPEDTAVYYCAAVSSNARHVSRRRGYYWGQGTQVTVSS,high polyreactivity
3,QVQLVESGGGLVQAGGSLRLSCAASGSTFSPYVMGWYRQAPGKERELVAAITSGGITNYADSVKGRFTISRDNAKNTVYLQMNSLKPEDTAVYYCNVDRYIRDSWGDYWGQGTQVTVSS,high polyreactivity
4,QVQLVESGGGLVQAGGSLRLSCAASGSTFSRNAMGWYRQAPGKERELVAAISRRGDTTYYADSVKGRFTISRDNAKNTVYLQMNSLKPEDTAVYYCNRLTIGSSSYDYWGQGTQVTVSS,high polyreactivity
5,QVQLVESGGGLVQAGGSLRLSCAASGSTFSRNVMAWYRQAPGKDRELVAAISRGGSTNYADSVKGRFTISRDNAKNTVYLQMNSLKPEDTAVYYCNAPRLGKFYYWGQGTQVTVSS,low polyreactivity
6,QVQLVESGGGLVQAGGSLRLSCAASGSTFSRYAMGWYRQAPGKDRELVAAINRSGGSTYYADSVKGRFTISRDNAKNTVYLQMNSLKPEDTAVYYCNKYTGYLHDYWGQGTQVTVSS,high polyreactivity
7,QVQLVESGGGLVQAGGSLRLSCAASGSTFSRYAMGWYRQAPGKERELVAAISSGDRTNYADSVKGRFTISRDNAKNTVYLQMNSLKPEDTAVYYCADDLFPIAGEYDYWGQGTQVTVSS,high polyreactivity
8,QVQLVESGGGLVQAGGSLRLSCAASGSTFSRYAMGWYRQAPGKERELVAAISWSGGSTYYADSVKGRFTISRDTAKNTVYLQMNSLKPEDTAVYYCAAYTYSFRANHDYWGQGTQVTVSS,high polyreactivity
9,QVQLVESGGGLVQAGGSLRLSCAASGSTFSRYAMGWYRQAPGKERELVAAITSNGGRTYYADSVKGRFTISRDNAKNTVYLQMNSLKPEDTAVYYCAAVYYTEYYWGQGTQVTVSS,high polyreactivity
10,QVQLVESGGGLVQAGGSLRLSCAASGSTFSSLIMGWYRQAPGKERELVAAISRSGGRTYYADSVKGRFTISRDNAKNTVYLQMNSLKPEDTAVYYCAAPWFRDTRGYSLYDYWGQGTQVTVSS,high polyreactivity
11,QVQLVESGGGLVQAGGSLRLSCAASGSTFSSNAMGWYRQAPGKERELVAAINRRGGTYYADSVKGRFTISRDNAKNTVYLQMNSLKPEDTAVYYCAAASPYHEYDYCGQGTQVTVSS,low polyreactivity
12,QVQLVESGGGLVQAGGSLRLSCAASGSTFSSYAMGWYRPAPGKERELVARISSSGGRTSYADSVKGRFTISRDHAKNTVYLQMNSLKAEDTAVSYCAAEDQYYRYFFSYEYWGQGTQVTVSS,high polyreactivity
13,QVQLVESGGGLVQAGGSLRLSCAASGSTFSSYAMGWYRQAPGKEREFDAAINTDGGSTYYADSVKGRFTISRDNAKNTVYLQMNSLKPEDTAVYYCAARYYWPWYSSYDYWGQGTQVTVSS,low polyreactivity
14,QVQLVESGGGLVQAGGSLRLSCAASGSTFSSYAMGWYRQAPGKERELVAAINWSGTRTYYADSVKGRFTISRDNAKNTVYLQMNSLKPEDTAVYYCAAPGFGETADYDDWGQGTQVTVSS,low polyreactivity
15,QVQLVESGGGLVQAGGSLRLSCAASGSTFSSYVMGWYRQAPGKERELVAAISSIGGSTYYADSVKGRFTISRDNAKNTVYLQMNSLKPEDTAVYYCAAEPPGSTYEGGYWGQGTQVTVSS,low polyreactivity
16,QVQLVESGGGLVQAGGSLRLSCAASGSTFSTNAMGWYRQAPGKERELVASITRSGGSTYYADSVKGRFTISRDNAKNTVYLQMNSLKPEDTAVYYCNADGYYDYDYGYWGQGTQVTVSS,low polyreactivity
17,QVQLVESGGGLVQAGGSLRLSCAASGSTFSTYAMGWDRQAPGKERELVAAIRWSGGSTYYADSVKGRFTISRDNAKNTVYLQMNSLKPEDTAVYNCNAGASYFLVISQSRRDYWGQGTEVTVSS,low polyreactivity
18,QVQLVESGGGLVQAGGSLRLSCAASGSTFSTYAMGWYRPAPGKERELVAAISRRGTNTYYADSVKGRFTISRDNAKNTVYLQMNSLKPEDTAVYYCAARSRSLRVYNRVYEVNEMDYWGQGTQVTVSS,low polyreactivity
19,QVQLVESGGGLVQAGGSLRLSCAASGSTFSTYAMGWYRQAPGKERELVARITRGGSTNYADSVKGRFTISRDNAKNTVYLQMNSLKPEDTAVYYCAAGIRSGRKYDYWGQGTQVTVSS,low polyreactivity
20,QVQLVESGGGLVQAGGSLRLSCAASGSTFSTYAMGWYRQAPGKERELVASISGRGSSTDYADSVKGRFTISRDNAKNTVYLQMNSLKPEDTAVYYCNRRGYRTSTTYRRYNYWGQGTQVTVSS,high polyreactivity
21,QVQLVESGGGLVQAGGSLRLSCAASGSTFSTYTMGWYRQAPGKERELVASISGRGGRTYYADSVKGRFTISRDNAKNTVYLQMNSMKPEDTAVYYCAARYWTLPWYQRGDYWGQGTQVTVSS,high polyreactivity
